In US8541200B2, “Cleavage of fusion proteins using Granzyme B protease” (Hoffmann-La Roche Inc., priority 2003, dated 2013):
Where a chain is given by its changes, count along the chain named. Entries after “also recorded” stand apart in the source; their conditions may differ.

What was measured:
[1] = Colorimetric Granzyme B activity assay with Ac-IEPD-pNA (absorbance at 405 nm); format: biochemical; details: for Granzyme B activity ΔOD405/min: pro-IEGR-GrB-H6 incubated with FXa at 4° C.; for completion of self-activation: 4° C., without addition of previously activated Granzyme B; for ΔOD405/min (self-activation): 100 mM HEPES pH 7.5
Protocol: GrB-H6 activity was measured using the following mix: 500 μl buffer, 2 μl 100 mM Ac-IEPD-pNA, and 5 μl GrB-H6.
Recombinant self-activating human Granzyme B derivatives IEPD-GrB-H6 and IEAD-GrB-H6 were produced as described in Example 2 by using the expression vectors pT7-IEPD-GrB-H6 and pT7-IEAD-GrB-H6 described in Example 1. The IEAD-GrB-H6 and IEPD-GrB-H6 proteins were eluted from the SP Sepharose columns and stored at 4° C. for 2 days before the activity of the respective top fractions were determined by using a colorimetric assay. For this purpose the following was mixed: 500 μl buffer (100 mM HEPES pH 7.5), 2 μl 100 mM Ac-IEPD-pNA, and 5 μl protein solution. The change in absorption was then determined at 405 nm during 3 min. The activity was further determined after additional incubation for 1 and 2 days at 4° C.
The activity of the activated and purified GrB-H6 was measured in different buffers using the Ac-IEPD-pNA substrate: 500 μl buffer, 2 μl 100 mM Ac-IEPD-pNA, and 5 μl GrB-H6. The ΔOD405/min was calculated from the first 0.75 min unless otherwise noted.

[2] = target: FXa (Bos taurus, UniProt P00743); assay: Cleavage of fusion proteins by FXa, SDS PAGE; format: biochemical, bovine; details: protease:fusion protein 1:1000, 23° C.
Chain of FXa (P00743 234-492 limits assumed): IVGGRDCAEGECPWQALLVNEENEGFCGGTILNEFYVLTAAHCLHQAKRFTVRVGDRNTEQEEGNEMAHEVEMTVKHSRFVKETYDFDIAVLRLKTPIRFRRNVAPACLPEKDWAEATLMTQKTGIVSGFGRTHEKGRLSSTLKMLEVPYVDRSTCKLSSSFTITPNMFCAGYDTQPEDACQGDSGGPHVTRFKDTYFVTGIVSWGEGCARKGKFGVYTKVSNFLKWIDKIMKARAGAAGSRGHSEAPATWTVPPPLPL
Chain of FXa (P00743 41-180 partner limits assumed): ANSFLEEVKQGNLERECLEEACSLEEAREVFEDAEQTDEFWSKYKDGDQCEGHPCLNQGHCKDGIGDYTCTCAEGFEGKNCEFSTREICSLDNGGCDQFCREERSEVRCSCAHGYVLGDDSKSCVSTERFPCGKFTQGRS
Protocol: (§1) Both H6-IEPD-RAP (SEQ ID NO: 23) and H6-IEGR-RAP were in 100 mM HEPES pH 7.4 and the following incubations were set up at room temperature, 23° C., with the protease:fusion protein ratio 1:1000: • 1. […] 400 μl (app. 400 μg) H6-GrB-RAP+2 μl GrB-H6 (app. 0.4 μg)
250 μl (app. 400 μg) H6Ubi-IEPD-ApoA1+0.4 μg GrB-H6 C228F • 2.

[3] = target: T1, GrB-H6 (Homo sapiens, UniProt P10144, R55Q); assay: Cleavage of fusion proteins by GrB-H6, SDS PAGE; format: biochemical; details: for fusion protein cleaved at IEPD↓ and internal AQPD↓ site: 10 μl GrB-H6, no Ca^2+
T1 construct: MGSIEGR (N, cleaved yes); made in house; host or cells: E. coli BL21
Protocol: (§2) The fusion protein H6-TripUB IEPD↓SP (SEQ ID NO: 22) (prepared as described in Example 7) eluted from the Ni^2+-NTA-agarose column was gel filtrated into 100 mM HEPES pH 7.5 and 200 μl samples of the top-fraction was incubated at room temperature with either 0, 1 or 10 μl of activated GrB-H6 (approximately 0, 0.2 and 2 μg GrB-H6).
With the H6-TripUB IEPD↓SP (SEQ ID NO: 22) fusion protein the following nine incubations (Table 9) were set up using 200 μl H6-TripUB IEPD↓SP (SEQ ID NO: 22) and 5 μl GrB-H6 (approximately 1 μg GrB-H6) for each incubation.
as §2, with “H6-IEPD-RAP” for “H6-TripUB IEPD↓SP”, “23)” for “22)”, “7.4” for “7.5”, “GrB-H6). Samples for SDS PAGE were taken after 5, 23 and 26 hours of incubation, see FIG. 10.” for “GrB-H6).”
as §1
The fusion protein H6-IEPD-TN123 (SEQ ID NO: 25) (prepared as described in Example 7) eluted from the Q Sepharose was after final purification gel filtrated into 100 mM HEPES pH 7.5, and 200 μl samples of the top-fraction was incubated at room temperature with either 0, 1 or 10 μl of activated GrB-H6 (approximately 0, 0.2 and 2 μg GrB-H6) both with and without 5 mM CaCl2 present. Samples for SDS PAGE from the incubations without CaCl2 were taken after 12, 19 and 24 hours as well as 5 days of incubation. Samples for SDS PAGE from the incubations both with and without CaCl2 were taken after approximately 20 and 48 hours of incubation, see FIG. 14.
Each of the fusion proteins eluted from the Ni^2+-NTA-agarose column were gel filtrated into 100 mM HEPES pH 7.4 and fractions of approximately the same concentration of the five different H6-TripUB variants were used. The five variants were H6-TripUB IEPD↓SP (SEQ ID NO: 22), H6-TripUB IQAD↓SP (SEQ ID NO: 26), H6-TripUB IQAD↓SG (SEQ ID NO: 27), H6-TripUB VGPD↓SP (SEQ ID NO: 28) and H6-TripUB VGPD↓FG (SEQ ID NO: 29). Of each fusion protein 200 μl was incubated at room temperature, 23° C., with 5 μl of activated GrB-H6 (approximately 1 μg GrB-H6). The protease:fusion protein ratio was thereby 1:500.

pro-IEGR-GrB-H6: pro-Granzyme B fusion protein with FXa recognition sequence IEGR and C-terminal hexa-His tag, SEQ ID NO:1
Granzyme B activity ΔOD405/min ([1]; 0 hours): 0.0073 ΔOD405/min | Granzyme B activity ΔOD405/min ([1]; 2 hours): 0.0200 ΔOD405/min | Granzyme B activity ΔOD405/min ([1]; 5 hours): 0.0250 ΔOD405/min | Granzyme B activity ΔOD405/min ([1]; 19 hours): 0.0829 ΔOD405/min | Granzyme B activity ΔOD405/min ([1]; 2 days (45 hours)): 0.1325 ΔOD405/min | Granzyme B activity ΔOD405/min ([1]; 5 days (120 hours)): 0.1832 ΔOD405/min

H6-IEGR-RAP: FXa cleavable hexa-His RAP fusion protein with recognition sequence IEGR
correctly cleaved product left ([2]; 27 hours): no correctly cleaved product left | fusion protein correctly cleaved ([2]; ½ hour): almost all of the fusion protein has been cleaved

B1: H6-IEPD-TN123: hexa-His Tetranectin (TN123) fusion protein with Granzyme B recognition site IEPD, SEQ ID NO. 25 (protein)
chain: MGSHHHHHHGSIEPDGEPPTQKPKKIVNAKKDVVNTKMFEELKSRLDTLAQEVALLKEQQALQTVCLKGTKVHMKCFLAFTQTKTFHEASEDCISRGGTLSTPQTGSENDALYEYLRQSVGNEAEIWLGLNDMAAEGTWVDMTGARIAYKNWETEITAQPDGGKTENCAVLSGAANGKWFDKRCRDQLPYICQFGIV
modifications: H6-IEPD-TN123
internal cleavage at AQPD↓ site ([3]; 5 mM Ca^2+ added): no internal cleavage is observed | fusion protein cleaved at IEPD↓ and internal AQPD↓ site ([3]; 2 days): almost all the fusion protein has been cleaved twice | fusion protein cleaved at IEPD↓ and internal AQPD↓ site ([3]; 5 days): almost all of the fusion protein has been cleaved twice | fusion protein correctly cleaved ([3]; 200 μl fusion protein + 10 μl GrB-H6, 5 mM Ca^2+, 12 hours): approximately 40% | sites cleaved ([3]; no Ca^2+ present): cleaved correctly at the IEPD sequence, but also just as rapidly at an internal site of the sequence AQPD

B2: H6-IEPD-RAP: hexa-His RAP fusion protein with Granzyme B recognition site IEPD, SEQ ID NO. 23 (protein)
chain: MGSHHHHHHGSIEPDYSREKNQPKPSPKRESGEEFRMEKLNQLWEKAQRLHLPPVRLAELHADLKIQERDELAWKKLKLDGLDEDGEKEARLIRNLNVILAKYGLDGKKDARQVTSNSLSGTQEDGLDDPRLEKLWHKAKTSGKFSGEELDKLWREFLHHKEKVHEYNVLLETLSRTEEIHENVISPSDLSDIKGSVLHSRHTELKEKLRSINQGLDRLRRVSHQGYSTEAEFEEPRVIDLWDLAQSANLTDKELEAFREELKHFEAKIEKHNHYQKQLEIAHEKLRHAESVGDGERVSRSREKHALLEGRTKELGYTVKKHLQDLSGRISRARHNEL
modifications: H6-IEPD-RAP
GrB-sensitive sites in RAP ([3]; 19 possible sites (19 Asp residues)): only one GrB-sensitive site | fusion protein cleaved ([3]; 200 μl fusion protein + 1 or 10 μl GrB-H6, room temperature, 5 hours): all the H6-IEPD-RAP (SEQ ID NO: 23) has been cleaved to give the final product; also recorded: all the H6-IEPD-RAP (SEQ ID NO: 23) was cleaved to give the final product | fusion protein correctly cleaved ([3]; protease:fusion protein 1:1000, 23° C., ½ hour): nearly all the H6-IEPD-RAP (SEQ ID NO: 23) has been cleaved correctly

B3: IEPD-GrB-H6: self-activating human pro-Granzyme B with IEPD recognition site and C-terminal H6, SEQ ID NO:2 (protein)
chain: MGSIEPDIIGGHEAKPHSRPYMAYLMIWDQKSLKRCGGFLIQDDFVLTAAHCWGSSINVTLGAHNIKEQEPTQQFIPVKRPIPHPAYNPKNFSNDIMLLQLERKAKRTRAVQPLRLPSNKAQVKPGQTCSVAGWGQTAPLGKHSHTLQEVKMTVQEDRKCESDLRHYYDSTIELCVGDPEIKKTSFKGDSGGPLVCNKVAQGIVSYGRNNGMPPRACTKVSSFVHWIKKTMKRYLNSHHHHHH
modifications: C-terminal His6 tag; pro-IEPD-GrB-H6
completion of self-activation [1]: not completed until after a least three or four days | ΔOD405/min (self-activation) ([1]; stored at 4° C. 2 days): 0.1284 ΔOD405/min | ΔOD405/min (self-activation) ([1]; stored at 4° C. 3 days): 0.1375 ΔOD405/min | ΔOD405/min (self-activation) ([1]; stored at 4° C. 4 days): 0.1351 ΔOD405/min

B4: IEAD-GrB-H6: self-activating human pro-Granzyme B with IEAD recognition site and C-terminal H6, SEQ ID NO:3 (protein)
chain: B3 chain with P6A
modifications: pro-IEAD-GrB-H6
completion of self-activation [1]: not completed until after a least three or four days | ΔOD405/min (self-activation) ([1]; stored at 4° C. 2 days): 0.1372 ΔOD405/min | ΔOD405/min (self-activation) ([1]; stored at 4° C. 3 days): 0.1607 ΔOD405/min | ΔOD405/min (self-activation) ([1]; stored at 4° C. 4 days): 0.1983 ΔOD405/min
